What was measured:
[1] = system: human CF bronchial epithelial cells; assay: Short circuit current (Isc) in cultured human cystic fibrosis bronchial epithelial cells; assay type: cell-based
Method: HBE cells were isolated from CF patient lung transplant tissue and grown in collagen coated flasks for one week. The cells were then passaged and seeded onto collagen coated Costar Transwell filters (0.33 cm2) and grown in DMEM/F12 media supplemented with 2% Ultroser G. Cells were grown at an air liquid interface and used 2 to 4 weeks after seeding:
Cells on the Transwell filters were mounted in modified Costar Ussing chambers and studied under Isc conditions. […] Isc was recorded for 100 minutes and then the apical bath fluid was exchanged with fresh buffer. Trypsin (100 BAEE units/mL) was added to the apical side and Isc recorded for 10 minutes. Amiloride (10 uM) was then added to the apical side and Isc was recorded for a further 10 minutes.
HBE cells were isolated from CF patient lung transplant tissue and grown in collagen coated flasks for one week. The cells were then passaged and seeded onto collagen coated Costar Transwell filters (0.33 cm^2) and grown in DMEM/F12 media supplemented with 2% Ultroser G. Cells were grown at an air liquid interface and used 2 to 4 weeks after seeding.
Cells on the Transwell filters were mounted in modified Costar Ussing chambers and studied under Isc conditions. […] Isc was recorded for 90 minutes and then amiloride (10 uM) was added and Isc was recorded for a further 10 minutes. The apical bath fluid was then exchanged with fresh buffer, and Isc was recorded for a further 15 minutes. Trypsin (1 uM) was added to the apical side and Isc recorded for 15 minutes. Amiloride (10 uM) was then added to the apical side and Isc was recorded for a further 10 minutes.

[2] = system: sheep airways; assay: Tracheal mucus velocity in the sheep; assay type: in vivo
Method: The aim of this study was to investigate the effect of the Kunitz family serine protease inhibitor Bikunin (1-170) described in Example 17 on sheep trachcal mucus velocity over 8 hours after treatment. This agent was delivered by nebulised aerosol administration to the airways. The procedure used in this example is described in O'Riordan et al., J. Applied Physiol. 85(3), 1086-1091, 1998.
Adult ewes were restrained in an upright position, with their heads immobilized, in a specialized body harness. They were nasally intubated with an endotracheal tube, with the cuff placed just below the vocal cords. The inspired air was warmed and humidified. To minimize possible impairment of TMV caused by inflated cuffs, the endotracheal tube cuff remained deflated throughout the study except for the period of aerosol administration.
To measure TMV 5 to 10 radiopaque Teflon particles (approximately 1 mm in diameter, 0.8 mm thick, and weighing 1.5 to 2 mg) were insufflated into the trachea via a catheter placed within the endotracheal tube. The movement of the Teflon particles was then measured over a 1 minute period. The procedure used in this example is described in Russi et al., J. Applied Physiol. 59(5), 1416-1422, 1985. A collar containing radiopaque markers of known length was applied to the exterior of the animals and used as a standard to convert distance traversed by the particles on the video screen to actual distance traveled. TMV was calculated from the average distance in a cephalad direction traveled per minute for 5 to 10 Teflon particles. Baseline TMV was measured immediately prior to administration of aerosol.
Test substances; PBS, 1 mg/mL Bikunin in PBS, or 3 mg/mL Bikunin in PBS; were delivered to the sheep airways as an aerosol (3 mL) generated using a Raindrop jet nebuliser operated at a flow rate that produced droplets of mass median aerodynamic diameter of 3.6 um. […]

[3] = system: ovine tracheal epithelial cells; assay: Short circuit current (Isc) in cultured ovine tracheal epithelial (OTE) cells; assay type: cell-based; settings: 100 ug/mL; over a 90 minute period; FIG. 24
Method: (§1) The aim of this study was to investigate the effect of Bikunin (1-170) (See Example 17), on Isc in OTE cells in vitro. OTE cells were seeded onto 1.2 cm diameter, 0.4 um pore size Snapwell™ inserts (Costar UK). Cells were grown to confluence and mounted in modified Ussing chambers 3-5 days after placement on air-liquid interface. Inserts were immersed in Krebs buffer (KBR) solution and bubbled with 95% O2/5% CO2 warmed to 37° C.
After a 20 minute equilibration period, transepithelial potential difference was then clamped to 0 mV using a WPI EVC 4000 voltage clamp. Ag/AgCl electrodes were used to monitor Isc. Once a stable baseline was achieved (typically 30 mins), cells were treated with amiloride (10 uM). Once a response to amiloride was obtained, it was washed out with KBR solution. After return to baseline, Bikunin (1-170) described in Example 17 (25, 50 or 100 ug/mL) or PBS was added. 90 minutes following agent treatment amiloride (10 uM) was again added.

[4] = system: guinea pig trachea; assay: Tracheal potential difference in guinea pigs pretreated with LPS; assay type: in vivo; settings: 50 ug/mL topical instillation; guinea pigs pre-exposed to LPS; FIG. 25(b)
Method: Polymorphonuclear (PMN) leukocyte (neutrophil) dominated airway inflammation is often a feature of CF lung disease. In the guinea pig, exposure to an aerosol of E. coli lipopolysaccharide (LPS) induces a marked PMN influx in the bronchoalveolar Iavage fluid 24 hours post challenge. The aim of this study was to investigate the effect of Bikunin (1-170) described in Example 17 on tracheal potential difference in guinea pigs pre-exposed to an aerosol of LPS. Agents were delivered into the cephalad trachea by topical instillation. TPD was monitored for 60 minutes, 23 hours after exposure to LPS.
Bikunin (1-170) was formulated in Hank's Balanced salt solution (HBSS). Amiloride was obtained from Sigma Chemicals and formulated in HBSS. Vehicle control was HBSS. Hypnorm (Fentanyl citrate 0.315 mg/mL and Fluanisone 10 mg/mL) was obtained from Janssen Animal Health and Hypnovel (Midazolam 5 mg.mL) was obtained from Roche. […]
23.4 hours following LPS treatment, guinea pigs were anaesthetised with Hypnorm and Hypnovel and immobilised in a supine position. […] Rectal temperature was monitored with a thermistor probe.
20 minutes following induction of anaesthesia, Bikunin (50 ug/mL) or amiloride (100 uM) was topically instilled into the cephalad trachea. The tracheal agar electrode was then inserted into the cephalad trachea and tracheal potential difference was measured for 60 minutes. […]

[5] = system: guinea pig tracheal epithelial cells; assay: Short circuit current (Isc) in cultured guinea pig tracheal epithelial (GPTE) cells; assay type: cell-based; settings: 50 ug/mL; over a 30 minute period; FIG. 23
Method: as §1, with “17)” for “17),”, “on GPTE” for “in OTE”, “GPTE” for “OTE”, “2-4” for “3-5”, “370” for “37°”
After a 20 minute equilibration period, transepithelial potential difference was then clamped to 0 mV using a WPI EVC 4000 voltage clamp. Ag/AgCl electrodes were used to monitor Isc. Once a stable baseline was achieved (typically 20-30 mins), cells were treated with amiloride (30 uM). Once a response to amiloride was obtained, it was washed out with KBR solution. After return to baseline and equilibration, Bikunin (1-170) described in Example 17 (10 to 50 ug/mL) or PBS was added. 30 minutes following agent treatment amiloride (30 uM) was added.

[6] = Stability to degradation on incubation; assay type: physicochemical; settings: 72-hours incubation at ambient temperature or at 37° C., neutral pH
[7] = system: human bronchial epithelial cell (HBE); settings: cited from earlier work

B1: CHO Bikunin (1-170): Glycosylated placental bikunin (1-170), SEQ ID NO: 52, expressed in Chinese hamster ovary cells (Example 17) (protein, listed as Homo sapiens)
chain: ADRERSIHDFCLVSKVVGRCRASMPRWWYNVTDGSCQLFVYGGCDGNSNNYLTKEECLKKCATVTENATGDLATSRNAADSSVPSAPRRQDSEDHSSDMFNYEEYCTANAVTGPCRASFPRWYFDVERNSCNNFIYGGCRGNKNSYRSEEACMLRCFRQQENPPLPLGSK
modifications: glycosylated, CHO-expressed
Q: Which results are given for B1?
A: Isc ([1]; 1 ug/mL): inhibited; Isc ([1]; 10 ug/mL in PBS, over a 90 minute period, FIG. 28(a)): inhibited Isc; Isc ([1]; 10 ug/mL in PBS, over a 90 minute period, FIG. 28(a), listed as CHO expressed Bikunin (1-170)): decreases sodium current; Isc ([1]; 1, 5, and 10 ug/mL, at 90 minutes after apical application, FIG. 28(b)): decreases sodium current; Isc ([1]; 1, 5, and 10 ug/mL, at 90 minutes after apical application, FIG. 28(b), listed as bikunin (1-170)): inhibited Isc; TMV ([2]; 3 mg aerosol (3 mL of 1 mg/mL), any time point versus vehicle): no significant differences; TMV ([2]; 9 mg aerosol (3 mL of 3 mg/mL), at 0, 0.5, 3, 4, 5, 6, 7, and 8 hours versus PBS vehicle, FIG. 22): significantly increased TMV; TMV ([2]; 9 mg aerosol, at 24 hours): returned to baseline rates; sodium current [3]: significantly inhibited sodium current; tracheal potential difference [4]: significantly inhibited potential difference; sodium current [5]: inhibited sodium current; stability to degradation [6]: stable to degradation; inhibition of the baseline Isc ([7]; 70 nM, in 90 minutes (McAulay et al 1998)): 58%; inhibition of Na+ Isc ([7]; 1.5 ug.ml−1: 70 nM, normal HBE cells, n=5-8 (McAulay et al 1998)): 54%
